Source: patent US20230038638A1, “COMPLEMENT FACTOR I-RELATED COMPOSITIONS AND METHODS” (published 2023)

Tests used:
[1] = target: soluble human C3b (human) (UniProt P01024)
[2] = target: T1, human C4b (human) (UniProt P0C0L5)
T1 sequence: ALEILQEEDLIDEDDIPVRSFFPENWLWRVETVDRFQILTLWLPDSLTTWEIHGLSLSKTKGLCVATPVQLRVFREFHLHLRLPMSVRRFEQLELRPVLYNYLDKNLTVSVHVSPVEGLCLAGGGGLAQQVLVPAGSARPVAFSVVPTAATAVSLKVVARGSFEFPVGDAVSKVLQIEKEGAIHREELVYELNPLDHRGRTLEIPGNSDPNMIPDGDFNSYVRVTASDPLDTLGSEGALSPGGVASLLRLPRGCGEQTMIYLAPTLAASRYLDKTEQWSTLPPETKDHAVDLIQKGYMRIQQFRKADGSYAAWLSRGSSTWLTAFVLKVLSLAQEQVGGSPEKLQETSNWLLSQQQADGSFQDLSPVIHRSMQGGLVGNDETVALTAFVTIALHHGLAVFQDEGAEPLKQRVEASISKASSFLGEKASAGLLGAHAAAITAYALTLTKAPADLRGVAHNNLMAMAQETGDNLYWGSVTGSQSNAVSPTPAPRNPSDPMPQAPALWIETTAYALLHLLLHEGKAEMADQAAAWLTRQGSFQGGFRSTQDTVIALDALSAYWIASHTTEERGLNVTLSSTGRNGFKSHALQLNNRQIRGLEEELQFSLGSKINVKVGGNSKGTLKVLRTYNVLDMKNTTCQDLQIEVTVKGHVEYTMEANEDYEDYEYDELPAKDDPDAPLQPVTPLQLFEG

Δ(K1-P305); GGSSGG (SEQ ID NO: 6); fH_CCP2-4 (enzyme), sequence (chain): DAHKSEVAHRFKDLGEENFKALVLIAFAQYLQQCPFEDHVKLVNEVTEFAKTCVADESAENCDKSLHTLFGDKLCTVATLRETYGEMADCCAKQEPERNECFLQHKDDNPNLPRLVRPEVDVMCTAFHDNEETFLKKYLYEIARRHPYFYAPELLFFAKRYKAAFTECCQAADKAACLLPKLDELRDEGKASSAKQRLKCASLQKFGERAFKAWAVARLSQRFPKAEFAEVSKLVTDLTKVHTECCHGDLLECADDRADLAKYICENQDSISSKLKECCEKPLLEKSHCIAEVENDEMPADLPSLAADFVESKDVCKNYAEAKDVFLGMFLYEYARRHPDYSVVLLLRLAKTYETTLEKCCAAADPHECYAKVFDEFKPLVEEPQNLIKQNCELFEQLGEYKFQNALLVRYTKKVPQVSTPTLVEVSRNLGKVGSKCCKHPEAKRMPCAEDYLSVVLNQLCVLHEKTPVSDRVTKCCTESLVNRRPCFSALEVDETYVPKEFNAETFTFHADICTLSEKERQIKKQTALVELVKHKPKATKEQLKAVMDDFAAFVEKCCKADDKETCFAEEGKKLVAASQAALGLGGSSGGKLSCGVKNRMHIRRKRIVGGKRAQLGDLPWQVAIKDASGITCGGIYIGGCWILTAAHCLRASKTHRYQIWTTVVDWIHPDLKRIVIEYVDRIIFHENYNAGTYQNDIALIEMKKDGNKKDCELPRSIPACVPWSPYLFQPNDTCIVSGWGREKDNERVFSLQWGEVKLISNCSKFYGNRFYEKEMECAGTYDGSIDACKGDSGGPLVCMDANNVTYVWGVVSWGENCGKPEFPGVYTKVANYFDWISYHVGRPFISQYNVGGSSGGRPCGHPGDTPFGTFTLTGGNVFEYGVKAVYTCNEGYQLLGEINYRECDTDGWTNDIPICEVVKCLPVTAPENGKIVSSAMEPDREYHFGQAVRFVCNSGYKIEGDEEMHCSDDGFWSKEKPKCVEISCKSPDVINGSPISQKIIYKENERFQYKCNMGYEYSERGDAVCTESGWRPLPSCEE
WT; GGSSGG (SEQ ID NO: 6); CCP_1-4 (enzyme), sequence (chain): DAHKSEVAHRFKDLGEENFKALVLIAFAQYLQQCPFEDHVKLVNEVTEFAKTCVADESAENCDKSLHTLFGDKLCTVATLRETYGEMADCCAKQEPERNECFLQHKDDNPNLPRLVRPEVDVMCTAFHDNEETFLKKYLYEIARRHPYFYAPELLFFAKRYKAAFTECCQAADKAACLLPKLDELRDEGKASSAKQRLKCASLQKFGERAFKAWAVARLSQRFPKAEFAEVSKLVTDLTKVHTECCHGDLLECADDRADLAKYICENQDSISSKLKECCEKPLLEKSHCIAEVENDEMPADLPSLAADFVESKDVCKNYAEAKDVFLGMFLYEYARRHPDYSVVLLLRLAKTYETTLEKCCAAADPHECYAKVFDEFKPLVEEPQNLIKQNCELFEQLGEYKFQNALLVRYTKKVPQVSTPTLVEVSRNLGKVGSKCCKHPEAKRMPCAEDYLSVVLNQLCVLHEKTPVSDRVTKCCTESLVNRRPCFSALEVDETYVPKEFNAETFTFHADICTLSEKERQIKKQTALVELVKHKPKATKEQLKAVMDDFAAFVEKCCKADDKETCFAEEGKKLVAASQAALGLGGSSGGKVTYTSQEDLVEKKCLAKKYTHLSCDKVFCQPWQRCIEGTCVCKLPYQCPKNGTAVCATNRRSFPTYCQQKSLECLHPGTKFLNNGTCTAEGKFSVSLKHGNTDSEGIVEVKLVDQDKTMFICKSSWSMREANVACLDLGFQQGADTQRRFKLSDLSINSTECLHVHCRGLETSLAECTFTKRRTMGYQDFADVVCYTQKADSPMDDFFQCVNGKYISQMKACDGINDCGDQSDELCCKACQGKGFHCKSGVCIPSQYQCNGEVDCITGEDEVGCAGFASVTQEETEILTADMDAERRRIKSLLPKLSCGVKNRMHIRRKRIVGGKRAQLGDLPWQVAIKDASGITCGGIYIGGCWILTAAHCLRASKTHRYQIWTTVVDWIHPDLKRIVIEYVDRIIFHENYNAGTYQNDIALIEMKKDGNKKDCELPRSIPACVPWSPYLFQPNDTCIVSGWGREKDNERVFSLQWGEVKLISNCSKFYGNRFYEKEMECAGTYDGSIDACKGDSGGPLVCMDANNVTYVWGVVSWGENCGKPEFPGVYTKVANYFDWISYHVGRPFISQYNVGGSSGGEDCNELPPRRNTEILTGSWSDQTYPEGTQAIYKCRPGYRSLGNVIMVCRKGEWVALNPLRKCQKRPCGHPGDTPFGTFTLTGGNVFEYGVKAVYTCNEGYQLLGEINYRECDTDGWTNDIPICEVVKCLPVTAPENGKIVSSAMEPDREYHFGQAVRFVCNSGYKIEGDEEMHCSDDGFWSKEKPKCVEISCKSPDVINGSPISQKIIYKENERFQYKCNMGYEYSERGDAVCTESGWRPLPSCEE

Substance | iC3b Screen Ref Fold (fold vs CFI-HSA wild type) [1] | C4b Screen Ref Fold (fold vs CFI-HSA wild type) [2] | also measured
WT; GGSSGG (SEQ ID NO: 6); CCP_1-4 (enzyme) | 0.02 | 0.21 | –
CFI-HSA variant Y408L; N531G; P535G; WT; GGSSGG (SEQ ID NO: 6); CR1(ccp15-17) (from UniProt P17927) (enzyme) | – | – | iC3b Screen Ref Fold (fold of CFI-HSA wild type) [1]: 0.05; C4b Screen Ref Fold (fold of CFI-HSA wild type) [2]: 3.6
CFI-HSA D549P (enzyme) | 0.53 | 1.08 | –
CFI-HSA variant F559Y (enzyme) | – | – | iC3b Screen Ref Fold (fold relative to CFI-HSA wild type) [1]: 1.23; C4b Screen Ref Fold (fold relative to CFI-HSA wild type) [2]: 0.66
CFI-HSA variant Y408L; P558S (enzyme) | – | – | iC3b Screen Ref Fold (fold of CFI-HSA wild type) [1]: 0.86; C4b Screen Ref Fold (fold of CFI-HSA wild type) [2]: 0.31
CFI-HSA variant Y20F; D425R (enzyme) | 1.01 | 0.42 | –
CFI-HSA variant Y408L; E457G; N531G; WT; GGSSGG (SEQ ID NO: 6); CR1(ccp15-17) (from UniProt P17927) (enzyme) | – | – | iC3b Screen Ref Fold (fold of CFI-HSA wild type) [1]: 0.1; C4b Screen Ref Fold (fold of CFI-HSA wild type) [2]: 3.65
CFI-HSA variant E457G; N531G; P535G; WT; GGSSGG (SEQ ID NO: 6); CR1(ccp15-17) (from UniProt P17927) (enzyme) | – | – | iC3b Screen Ref Fold (fold of CFI-HSA wild type) [1]: 0.03; C4b Screen Ref Fold (fold of CFI-HSA wild type) [2]: 5.82
CFI-HSA R327G (enzyme) | 0.5 | 0.26 | –
CFI-HSA Y408L; E457G; E461Q; R462K; N531G; ΔC-term (Δ558-PFISQYNV (SEQ ID NO: 14)-565) (enzyme) | 0.24 | 1.67 | –
CFI-HSA variant Y408L; P535G; P558S (enzyme) | – | – | iC3b Screen Ref Fold (fold of CFI-HSA wild type) [1]: 0.24; C4b Screen Ref Fold (fold of CFI-HSA wild type) [2]: 0.04
CFI-HSA D501G (enzyme) | -0.04 | -0.01 | –
CFI-HSA N531G; E457G; E461Q; R557K (enzyme) | 1.81 | 4.69 | –
CFI-HSA variant T495F; Y496L; D497E; S499G; I500K (enzyme) | 0 | -0.04 | –
CFI-HSA K368E (enzyme) | 0.2 | 0.06 | –
CFI-HSA Y553L (enzyme) | 0.93 | 0.67 | –
CFI-HSA Y408L; E457G; N531G; E530Y (enzyme) | 2.07 | 4.16 | –
CFI-HSA variant Y408L; N531G; WT; GGSSGG (SEQ ID NO: 6); CR1(ccp15-17) (from UniProt P17927) (enzyme) | – | – | iC3b Screen Ref Fold (fold of CFI-HSA wild type) [1]: 0.22; C4b Screen Ref Fold (fold of CFI-HSA wild type) [2]: 4.17

Substance | iC3b Screen Ref Fold (fold vs CFI-HSA wild type) [1] | C4b Screen Ref Fold (fold vs CFI-HSA wild type) [2] | also measured
CFI-HSA variant Y408L; P535G; N422K (enzyme) | – | – | iC3b Screen Ref Fold (fold of CFI-HSA wild type) [1]: 1.03; C4b Screen Ref Fold (fold of CFI-HSA wild type) [2]: 0.17
CFI-HSA variant S507A; GGSSGG (SEQ ID NO: 6); CR1(ccp1-3) (from UniProt P17927) (enzyme) | – | – | iC3b Screen Ref Fold (fold of CFI-HSA wild type) [1]: 0.02; C4b Screen Ref Fold (fold of CFI-HSA wild type) [2]: 0.12
CFI-HSA variant Y408L; WT; GGSSGG (SEQ ID NO: 6); CR1(ccp15-17) (from UniProt P17927) (enzyme) | – | – | iC3b Screen Ref Fold (fold of CFI-HSA wild type) [1]: 0.03; C4b Screen Ref Fold (fold of CFI-HSA wild type) [2]: 3.64
CFI-HSA A502G (enzyme) | 0.09 | 0.06 | –
CFI-HSA K424G (enzyme) | 1.44 | 0.32 | –
CFI-HSA Y408L; E457G; E461Q; R462K; N531G; R557K (enzyme) | 1.14 | 4.01 | –
CFI-HSA E457G; E461Q; N531G; GGSSGG (SEQ ID NO: 6); CR1 (ccp15-17) (from UniProt P17927) (enzyme) | 0.12 | 4.82 | –
CFI-HSA variant A328C; W468C (enzyme) | 0 | -0.06 | –
CFI-HSA D549H (enzyme) | 0.73 | 0.92 | –
CFI-HSA variant N531G; P535A; GGSSGG (SEQ ID NO: 6); CR1(ccp15-17) (from UniProt P17927) (enzyme) | – | – | iC3b Screen Ref Fold (fold of CFI-HSA wild type) [1]: 0.14; C4b Screen Ref Fold (fold of CFI-HSA wild type) [2]: 3.53
CFI-HSA variant E536A (enzyme) | 0.76 | 0.57 | –
CFI-HSA variant N52Q; N85Q; N159Q (enzyme) | 1.93 | 0.24 | –
CFI-HSA K424P (enzyme) | 1.05 | 0.33 | –
CFI-HSA Y408L; E457G; E530Y (enzyme) | 1.12 | 2 | –
CFI-HSA Y408L; E457G; E461Q; R462K; N531G; GGSSGG (SEQ ID NO: 6); CR1 (ccp15-17) (from UniProt P17927) (enzyme) | 0.18 | 1.84 | –
CFI-HSA variant E530G (enzyme) | 0.12 | -0.02 | –
CFI-HSA variant G556P (enzyme) | – | – | iC3b Screen Ref Fold (fold of CFI-HSA wild type) [1]: 0.39; C4b Screen Ref Fold (fold of CFI-HSA wild type) [2]: 0.65
CFI-HSA variant N531G; P535G; N422K (enzyme) | – | – | iC3b Screen Ref Fold (fold of CFI-HSA wild type) [1]: 1.96; C4b Screen Ref Fold (fold of CFI-HSA wild type) [2]: 2.85

Continued, in another order:

iC3b Screen Ref Fold (fold vs CFI-HSA wild type) [1] | C4b Screen Ref Fold (fold vs CFI-HSA wild type) [2] | Substance | also measured
0.43 | 1.25 | CFI-HSA R365V (enzyme) | –
0.6 | 0.18 | CFI-HSA R365S (enzyme) | –
0.03 | 0.06 | (HSA-GS)-V311-V565 - G(13) - K1-G310; C309S; C435S (enzyme) | –
0.3 | 1.16 | CFI-HSA R365I (enzyme) | –
0.27 | 0.52 | CFI-HSA D549R (enzyme) | –
0.03 | 0.06 | Δ(K1-P305); GGSSGG (SEQ ID NO: 6); fH_CCP2-4 (enzyme) | –
1.73 | 4.29 | CFI-HSA E457G; D425R; E530Y (enzyme) | –
0.04 | 3 | CFI-HSA R557P (enzyme) | –
1.93 | 0.33 | CFI-HSA Y408L; E530Y (enzyme) | –
0.04 | 0.06 | CFI-HSA variant Δ(K1-P305) (enzyme) | –
1.38 | 0.78 | CFI-HSA Y553R (enzyme) | –
2.82 | 3.17 | CFI-HSA T377G; E461Q (enzyme) | –
0.49 | 1.85 | CFI-HSA variant M220A-K221Q (enzyme) | –
0.77 | 0.64 | CFI-HSA R484G (enzyme) | –
0.15 | 2.27 | CFI-HSA R557L (enzyme) | –
0.67 | 1.67 | CFI-HSA variant R327P (enzyme) | –
0.12 | 2.13 | CFI-HSA R557F (enzyme) | –
0.64 | 0.18 | CFI-HSA R365Q (enzyme) | –
0.65 | 0.05 | CFI-HSA F399G (enzyme) | –
0.5 | 0.56 | CFI-HSA R365A (enzyme) | –
0.93 | 0.76 | CFI-HSA Y553S (enzyme) | –
0.39 | 0.31 | CFI-HSA variant I322V; V323I (enzyme) | –
0.87 | 0.26 | CFI-HSA K424A (enzyme) | –
0.67 | 0.21 | CFI-HSA variant Y20F; E38A; S250A; D425A (enzyme) | –
0.11 | 0.25 | WT; GGSSGG (SEQ ID NO: 6); CCP_1-4; GGSS(6) + G; compstatin (enzyme) | –
